Molecular target: Human CD64 (FcγRI), His-tagged (human) (UniProt P12314)
Assay: SPR single cycle kinetics, 1:1 model, His-CD64 captured, antibody as analyte

Chain of Human CD64 (FcγRI), His-tagged (human) (P12314 16-288 limits assumed): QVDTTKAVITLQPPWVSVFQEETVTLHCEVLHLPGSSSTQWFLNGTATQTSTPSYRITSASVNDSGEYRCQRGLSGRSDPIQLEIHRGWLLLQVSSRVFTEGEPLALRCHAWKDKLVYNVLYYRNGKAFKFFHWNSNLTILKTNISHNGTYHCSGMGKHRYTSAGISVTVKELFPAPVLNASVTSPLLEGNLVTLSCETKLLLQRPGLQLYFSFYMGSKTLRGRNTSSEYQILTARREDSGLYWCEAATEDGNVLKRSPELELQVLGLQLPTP

Row | Substance | Kd [nM] | koff [s⁻¹] | kon [M⁻¹ s⁻¹]
1 | Irrelevant IgG1 (antibody) | 2.61 | 0.00083 | 319000
2 | Irrelevant IgG4 (antibody) | 5.97 | 0.00249 | 417000
